Test [1] addresses T1, C3d, source and species not stated.
T1 construct: domain: C3d; also called 3d antigen; target C3d antigen
In words: radiolabeled antibody; method and antigen not stated.

For another test, the target named is T2, recombinant human C3d (human, UniProt P01024 996-1303, limits assumed).
T2 construct: domain: C3d; also called wild-type C3d; the C3d immunogen
Briefly: SPR, recombinant human C3d fixed to a CM5 chip. The procedure:
FIGS. 12A-12C. […] Surface plasmon resonance was performed using recombinant human C3d fixed to a CM5 chip.
The affinity of clones 3d8b, 3d9, and 3d29 for C3d were tested by surface plasmon resonance (FIG. 12).
On the technique in general: In SPR one partner is held on a chip, and binding of the other changes the refractive index at the surface.

Another test has as its target T3, recombinant murine C3d (murine, UniProt P01027 996-1303, limits assumed).
T3 construct: domain: C3d; also called mouse C3d
In words: direct ELISA. As to the method: To confirm that the antibodies reacted with C3d and not with a contaminant in the immunogen, the antibodies were tested against the C3d using a sandwich ELISA in which the recombinant C3d was captured with a polyclonal anti-C3d capture antibody (Table 2). To test reactivity of the clones against murine C3d we performed indirect and sandwich ELISAs using recombinant murine C3d. We also performed direct ELISAs to test binding of the antibodies to recombinant human C3d from a second construct, purified human C3d, and to recombinant cynomologous C3d.
To assess reactivity of antibodies against C3d, ELISAs were performed using purified forms of C3 activation fragments from several different sources (see Reagents section above). Direct ELISAs were performed by affixing 30-50 ng of the C3 fragment to the ELISA plate overnight at 4° C. The plates were blocked with 1% bovine serum albumin in PBS for 2 hours at room temperature. Bound antibodies were then detected with HRP-conjugated anti-mouse IgG (MP Biomedicals, Solon, Ohio). Sandwich ELISAs were performed by incubating polyclonal anti-human C3d antibody (Dako USA, Carpinteria, Calif.) to the ELISA plates in order to capture the C3d. Binding of the antibodies to the captured C3d was then detected as above.
For orientation: In an ELISA, binding on a coated surface is turned into a signal by an enzyme label.

T1 sequence (P01024 1002-1303): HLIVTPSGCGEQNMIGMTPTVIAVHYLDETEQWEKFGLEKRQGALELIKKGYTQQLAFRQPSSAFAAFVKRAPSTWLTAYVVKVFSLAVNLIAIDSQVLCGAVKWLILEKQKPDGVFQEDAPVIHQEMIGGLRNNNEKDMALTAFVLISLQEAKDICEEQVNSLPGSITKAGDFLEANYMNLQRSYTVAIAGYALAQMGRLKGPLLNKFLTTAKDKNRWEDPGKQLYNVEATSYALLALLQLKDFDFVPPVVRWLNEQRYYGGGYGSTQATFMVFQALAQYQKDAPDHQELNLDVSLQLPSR
T3 sequence (P01027 996-1303 limits assumed): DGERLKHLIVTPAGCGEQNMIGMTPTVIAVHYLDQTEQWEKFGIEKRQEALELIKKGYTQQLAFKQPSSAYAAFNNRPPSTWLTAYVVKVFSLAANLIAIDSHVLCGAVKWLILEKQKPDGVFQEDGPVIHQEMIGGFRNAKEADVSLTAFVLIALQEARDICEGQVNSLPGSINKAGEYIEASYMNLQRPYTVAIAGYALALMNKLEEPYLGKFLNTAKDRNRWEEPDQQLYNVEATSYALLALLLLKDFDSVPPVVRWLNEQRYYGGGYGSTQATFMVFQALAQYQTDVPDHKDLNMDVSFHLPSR
T2 sequence (P01024 996-1303 limits assumed): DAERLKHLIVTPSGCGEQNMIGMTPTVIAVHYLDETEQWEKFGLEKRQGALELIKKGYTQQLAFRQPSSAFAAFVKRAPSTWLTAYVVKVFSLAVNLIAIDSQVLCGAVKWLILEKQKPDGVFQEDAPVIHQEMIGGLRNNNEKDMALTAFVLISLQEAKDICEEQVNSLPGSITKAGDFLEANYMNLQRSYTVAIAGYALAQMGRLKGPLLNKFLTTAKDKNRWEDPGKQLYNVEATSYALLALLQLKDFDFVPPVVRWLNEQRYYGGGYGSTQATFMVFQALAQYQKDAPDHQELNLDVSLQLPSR

B1: mouse monoclonal antibody 3d29 (antibody, mouse IgG2a, V domains shown)
VH: EVQLQQSGPVLVKPGASVKMSCKASGYTFTDYYMNWVKQSHGKSLEWIGVINPYNGGTSYNQKFKGKATLTVDKSSRTAYMELNSLTSEDSAVYYCSRGGPYWGQGTTLTVSS
VL: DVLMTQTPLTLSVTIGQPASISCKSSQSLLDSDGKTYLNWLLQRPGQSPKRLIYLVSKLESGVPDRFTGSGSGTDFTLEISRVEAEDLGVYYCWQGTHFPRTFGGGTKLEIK
notes: Mouse IgG2a/c (Group I clone); Also used FITC-labelled, biotinylated, radiolabeled and conjugated to SPIO nanoparticles; also called C3d29; 3d29a
As a reminder, the Kd is the equilibrium constant for the complex coming apart. For the molecule B1, the dissociation constant (Kd) in test [1] amounted to 0.43 nM; with recombinant human C3d, 1.06 nM. For the same molecule, the binding result with recombinant murine C3d was “binds”.

(Values after US20150306254A1 (REGENTS OF THE UNIVERSITY OF COLORADO A BODY CORPORATE, published 2015).)
